The values below come from US20240390418A1 (MINERVA BIOTECHNOLOGIES, published 2024).

The chains are these.
B5: N-10 peptide (peptide)
peptide: QFNQYKTEAASRYNLTISDVSVSDVPFPFSAQSGA
notes: also called PSMGFR N-10; PSMGFR minus 10 amino acids from the N-terminus

Experiment [1] deals with T1, C-10 peptide.
T1 construct: also called PSMGFR C-10; PSMGFR minus 10 amino acids from the C-terminus
T1 peptide: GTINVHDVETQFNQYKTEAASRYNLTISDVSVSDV
Put plainly: ELISA, peptide on plate (FIG. 201). Background: ELISA stands for enzyme-linked immunosorbent assay.

The target in experiment [2] is T2, PSMGFR peptide.
T2 construct: also called MUC1* peptide
T2 peptide: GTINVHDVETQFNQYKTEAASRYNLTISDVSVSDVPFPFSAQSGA
Nature of the experiment: ELISA, peptide on plate (FIG. 201A). As to the method: (§1) FIG. 201A-201C show graphs of ELISA assays to determine the binding of another set of antibodies generated by immunizing animals with the PSMGFR peptide. […] F3, B12, B2, B7, B9, 8C7F3 and H11 all bound to the PSMGFR peptide and to the N-10 peptide.
(§2) This same ELISA assay was performed on the antibodies of the invention (FIGS. 64-66 and FIG. 201). Note that only 20A10 exactly matches the binding profile of MNC2 and MNE6. 25E6, 28F9 and 18G12 are all able to bind to the N-10 peptide. 18B4 is the only antibody raised against the PSMGFR peptide that requires the 10 most N-terminal amino acids of the peptide. The color of the bars for each antibody in the ELISA graph are color coded to match the deductive cognate sequence, or a portion thereof, of that antibody. In addition, another set of antibodies was assayed by ELISA (FIG. 201). Of this set, B12, B2, B7, B9, 8C7F3, and H11 bound to the PSMGFR peptide, bound to the N-10 peptide, but not to the C-10 peptide (FIG. 201). Although these antibodies were raised against the N+20/C-27 peptide, all but one, 45C11, still bind to the PSMGFR peptide, albeit at the N-terminal portion of PSMGFR.

In experiment [3] the target is B5. Put plainly: ELISA, peptide on plate (FIG. 201B). As for the experimental part:
as §1, §2

Experiment [4] has as its target T3, MUC1* expressed on HCT-116 cells transfected with MUC1* (extra cellular domain is just the PSMGFR sequence) (Homo sapiens (Human), UniProt P15941 1110-1255).
T3 construct: In Western blot rows the same protein stood denatured in cell lysate; also called HCT-MUC1*; HCT-FLR
T3 sequence: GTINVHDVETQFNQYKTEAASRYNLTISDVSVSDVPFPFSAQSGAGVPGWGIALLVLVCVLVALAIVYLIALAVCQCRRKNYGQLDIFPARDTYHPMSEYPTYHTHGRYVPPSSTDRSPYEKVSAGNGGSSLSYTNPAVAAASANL
Nature of the experiment: denaturing Western blot of cell lysates, longer exposure (FIG. 72G, 72H, 72O, 72P). From the text: All these antibodies were raised against the PSMGFR peptide and bind to the PSMGFR peptide. […] FIG. 72A and FIG. 72I show 20A10. FIG. 72B and FIG. 72J show 25E6. FIG. 72C and FIG. 72K show 18B4. FIG. 72D and FIG. 72L show 18G12. FIG. 72E and FIG. 72M show 28F9. FIG. 72F and FIG. 72N show 3C2B1. FIG. 72G and FIG. 72O show 5C6F3. FIG. 72H and FIG. 72P show 5C6F3 wherein the blot has been exposed for a longer time period to render more visible the MUC1* specific bands.
(§3) Antibodies that were raised against the PSMGFR peptide were tested the same way in Western blots (FIG. 72A-72P). […] Antibodies that were raised against the N+20/C-27 peptide were tested the same way in Western blots (FIG. 73A-73J). […] Antibodies 1E4 and 45C11 may recognize a conformational epitope. Antibodies that were raised against the N+9/C-9 peptide were tested the same way in Western blots (FIG. 74A-74H). […] These antibodies may recognize a conformational epitope.
Background: A western blot detects proteins with antibodies after separation by electrophoresis.

Experiment [5] has as its target B5. Put plainly: peptide ELISA.
Experiment [6] addresses T2, PSMGFR peptide. Put plainly: peptide ELISA.
The target in experiment [7] is B5. Nature of the experiment: ELISA, peptide on plate (FIG. 9).
For experiment [8], the target named is T2, PSMGFR peptide. Put plainly: ELISA, peptide on plate (FIG. 9).
The target in experiment [9] is T1, C-10 peptide. Put plainly: ELISA, peptide on plate (FIG. 9).
In experiment [10] the target is T3, MUC1* expressed on HCT-116 cells …. Put plainly: denaturing Western blot of cell lysates (FIG. 72). As for the experimental part:
Antibodies were tested to determine whether they recognize a linear or a conformational epitope. Only antibodies that recognize a linear epitope work in Western blots when using denaturing gels. […] The antibodies tested for comparison are MNC2 and MNE6, which were known to only recognize a conformational epitope, SDIX which is a polyclonal antibody raised against PSMGFR and VU4H5, which is a commercially available monoclonal antibody that recognizes the tandem repeats of full-length MUC1 (FIG. 71A-71D). […] The SDIX polyclonal antibody recognizes HCT-MUC1* but not full-length MUC1 and VU4H5 only recognizes full-length MUC1. These same antibodies were also tested for their ability to work in Western blots of two breast cancer cell lines 1500, aka Zr-75-1, and T47D cells and show the same binding pattern (FIG. 71E-71H).
as §3

A further experiment deals with T4, N+9/C-9 peptide.
T4 peptide: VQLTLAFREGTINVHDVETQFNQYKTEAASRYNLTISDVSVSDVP
Put plainly: ELISA, peptide on plate (FIG. 64).

The target of experiment [11] is B5. Nature of the experiment: peptide ELISA, told in tissue legend.
Experiment [12] addresses T2, PSMGFR peptide. Nature of the experiment: peptide ELISA, told in tissue legend.
The target of a further experiment is T5, NME7AB (Homo sapiens (Human), UniProt Q9Y5B8 92-376).
T5 construct: NME7A in the text appears to be NME7AB; also called NM23-H7; NME7A
T5 sequence: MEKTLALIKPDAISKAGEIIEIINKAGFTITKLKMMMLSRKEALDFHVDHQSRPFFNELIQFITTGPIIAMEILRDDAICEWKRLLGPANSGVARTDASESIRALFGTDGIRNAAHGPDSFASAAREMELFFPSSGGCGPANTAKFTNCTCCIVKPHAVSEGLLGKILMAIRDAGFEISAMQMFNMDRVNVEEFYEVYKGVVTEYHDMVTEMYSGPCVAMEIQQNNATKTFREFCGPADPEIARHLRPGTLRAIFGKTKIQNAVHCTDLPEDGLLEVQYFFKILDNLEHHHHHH
Put plainly: ELISA, peptide on plate (FIG. 2A-2D).

Experiment [13] deals with T2, PSMGFR peptide. Put plainly: ELISA, peptide on plate (FIG. 65).
Experiment [14] concerns the target T3, MUC1* expressed on HCT-116 cells …. Put plainly: flow cytometry, HCT-116 cells transfected with MUC1* (FIG. 35B). A general note: A flow cytometer gives signals particle by particle.
Experiment [15] deals with B5. Put plainly: ELISA, peptide on plate (FIG. 2B-2C).
Experiment [16] deals with T1, C-10 peptide. Nature of the experiment: ELISA, peptide on plate (FIG. 64).
A further experiment addresses T6, N+20/C-27 peptide.
T6 peptide: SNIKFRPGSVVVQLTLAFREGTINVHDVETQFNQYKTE
Put plainly: ELISA, peptide on plate (FIG. 63). As to the method:
ELISA assays were performed to determine if, in addition to recognizing their immunizing peptide, they recognized PSMGFR, N-10 or C-10. In addition, they were tested for their ability to bind to N+20/C-27, N+9/C-9. We first did the ELISA assay on our set of reference antibodies, MNC2, MNE6, which we know are cancer-specific plus MNC3, which we know recognizes stem cells and progenitor cells (FIG. 63A-63B). None of the reference antibodies bound to the N+20/C-27 peptide. MNC2 and MNE6 cannot bind to PSMGFR peptides with 27, 10 or 9 C-terminal deletions, however, MNC3 binds to C-10 and to N+9/C-9 peptides.

Experiment [17] addresses T2, PSMGFR peptide. Put plainly: ELISA, peptide on plate (FIG. 2B). As for the experimental part:
FIGS. 2A-2I show results of ELISA assays. MUC1* peptides PSMGFR, PSMGFR minus 10 amino acids from the N-terminus aka N-10, or PSMGFR minus 10 amino acids from the C-terminus, aka C-10 are immobilized on the plate and the following are assayed for binding: NME7-AB (FIG. 2A), MNC2 monoclonal antibody (FIG. 2B), MNE6 monoclonal antibody (FIG. 2C), or dimeric NME1 (FIG. 2D). […] MUC1* peptides PSMGFR minus 10 amino acids from the N-terminus aka N-10, or PSMGFR minus 10 amino acids from the C-terminus, aka C-10, are immobilized on the plate and the following are assayed for binding: MNC3 (FIG. 2E) and MNC8 (FIG. 2F).

B1: monoclonal antibody H11 (antibody, V domains shown)
VH: EVVLVESGGGLVEPGGSLKLSCVASGFAFSTFAMSWIRQTPEKRLEWVAAISNGGGYTYYPDTLKGRFTISRDNAKNTLYLQMSSLRSEDTAVYYCARRYYDLYFDLWGQGTSLIVSS
VL: DILMTQTPLSLPVSLGDQASISCRSSQNIVHSNGNTYLEWYLQKPGQSPKLLIYKVSNRFSGVPDRFSGSGSGTDFTLKISRVEAEDLGVYYCFQDSHVPLTFGAGTRLELK
notes: Raised against PSMGFR
B1: the binding result is reported as “no binding” with C-10 peptide [1], “binds” with PSMGFR peptide [2] and “binds” with N-10 peptide [3].

B2: monoclonal antibody 5C6F3 (antibody, V domains shown)
VH: EVMLVESGGGLVKPGGSLKLSCAASGFTFSTYAMSWVRQTPEKRLEWVAAISNGGGYTYYPDSLKGRFTISRDNAKNTLYLQMSSLRSEDTATYYCARRYYDHYFDYWGQGTALTVSS
VL: DVLMTQTPLSLPVSLGDQASISCRSSQTIVHSNGNTYLEWYLQKPGQSPKLLIYKVSNRFSGVPDRFSGSGSGTDFTLKISRVEAEDLGVYYCFQDSHVPLTFGAGTKLELK
notes: Raised against PSMGFR; also called MN5C6F3; anti-PSMGFR antibody 5C6F3
With B2, the binding result (in experiment [4]; with N-10 peptide [5]; with PSMGFR peptide [6]) was “binds” throughout.

B3: humanized MNC3 scFv-Fc (Fc fusion)
VH: QVQLVQSGAEVKKPGASVKVSCKASGYTFTDYAMNWVRQAPGQGLEWMGVISTFSGNTNFNQKFKGRVTMTTDTSTSTAYMELRSLRSDDTAVYYCARSDYYGPYFDYWGQGTTLTVSS
VL: DIVMTQTPLSLSVTPGQPASISCRSSQTIVHSNGNTYLEWYLQKPGQSPQLLIYKVSNRFSGVPDRFSGSGSGTDFTLKISRVEAEDVGVYYCFQGSHVPFTFGGGTKVEIKRT
In the case of B3, the binding result with N-10 peptide [7], in the experiment with PSMGFR peptide [8] and with C-10 peptide [9] was “binds” in each case.

B4: monoclonal antibody 25E6 (antibody, V domains shown)
VH: EVQLVESGGDLVKPGGSLKLSCAASGFTFSSYGMSWVRQTPDKRLEWVATISNGGRHTFYPDSVKGRFTISRDNAKNTLYLQMSSLKSEDTAMYLCVRQTGTEGWFAYWGQGTLVTVSA
VL: not shown
notes: Raised against PSMGFR; also called MN25E6; anti-PSMGFR antibody 25E6
With B4, the binding result (in experiment [10]; with N+9/C-9 peptide; in the experiment with N-10 peptide [11]; in the experiment with PSMGFR peptide [12]) was “binds” throughout.

Turning to B5, the binding result with NME7AB is “binds”.

B6: monoclonal antibody 45C11 (antibody, V domains shown)
VH: EVQLQQSGADLVKPGASVKLSCTASGFNIKDTFMHWVKQRPEQGLEWIGRIDPANGNTKYDPKFQGKATITADTSSNTAYLQLSSLTSEDTAVYYCAKPYGNYGYYYALDYWGQGTSVTVSS
VL: DVQITQSPSYLAASPGETITINCRASKSISKYLAWYQEKPGKTNKLLIYSGSTLQSGIPSRFSGSGSGTDFTLTISSLEPEDFAMYYCQQHNEFPWTFGGGTKLEIK
notes: Raised against the N+20/C-27 peptide; also called N+20/C-27 antibody 45C11
Take B6: the binding result with PSMGFR peptide [13] and with N-10 peptide [5] was “no binding” each time.

B7: mouse monoclonal antibody MNC2 (antibody, V domains shown)
VH: EVQLEESGGGLVKPGGSLKLSCAASGFTFSGYAMSWVRQTPEKRLEWVATISSGGTYIYYPDSVKGRFTISRDNAKNTLYLQMSSLRSEDTAMYYCARLGGDNYYEYFDVWGAGTTVTVSS
VL: DIVITQSTASLGVSLGQRATISCRASKSVSTSGYSYMHWYQQRPGQPPKLLIYLASNLESGVPARFSGSGSGTDFTLNIHPVEEEDAATYYCQHSRELPFTFGGGTKLEIKR
notes: Mouse monoclonal raised against the PSMGFR peptide; also called Min-C2; MNC2-scFv (label in some tissue legends)
For B7, the binding result is “binds” in experiment [14]; “binds” with N-10 peptide [15]; “no binding” with N+9/C-9 peptide; “no binding” with C-10 peptide [16]; “no binding” with N+20/C-27 peptide; “binds” with PSMGFR peptide [17].
